{"source": "patent US20180319842A1", "about": "(TUFTS MEDICAL CENTER, published 2018)", "test_in_all_cases": "cell-based or functional assay", "key": {"MrgprX1 R131S variant": {"biological_target": "MrgprX1 R131S variant (human, UniProt Q96LB2 1-322)", "sequence (Q96LB2 whole entry R131S)": "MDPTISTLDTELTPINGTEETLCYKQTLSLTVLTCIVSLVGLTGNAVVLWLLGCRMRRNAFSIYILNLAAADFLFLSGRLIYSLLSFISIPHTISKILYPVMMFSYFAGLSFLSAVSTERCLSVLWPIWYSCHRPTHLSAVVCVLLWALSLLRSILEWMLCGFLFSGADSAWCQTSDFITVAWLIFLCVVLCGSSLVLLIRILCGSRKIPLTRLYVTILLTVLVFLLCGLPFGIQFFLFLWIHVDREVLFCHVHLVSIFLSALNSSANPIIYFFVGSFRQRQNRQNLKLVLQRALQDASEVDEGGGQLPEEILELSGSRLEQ"}, "MrgprX1 A46T variant": {"biological_target": "MrgprX1 A46T variant (human, UniProt Q96LB2 1-322)", "sequence (Q96LB2 whole entry A46T)": "as the sequence (Q96LB2 whole entry R131S) above, with A46T, S131R counted along it"}, "MrgprX1 F273L variant": {"biological_target": "MrgprX1 F273L variant (human, UniProt Q96LB2 1-322)", "sequence (Q96LB2 whole entry F273L)": "as the sequence (Q96LB2 whole entry R131S) above, with S131R, F273L counted along it"}, "MrgprX1 H133R variant": {"biological_target": "MrgprX1 H133R variant (human, UniProt Q96LB2 1-322)", "sequence (Q96LB2 whole entry H133R)": "as the sequence (Q96LB2 whole entry R131S) above, with S131R, H133R counted along it"}, "MrgprX1 R55L variant": {"biological_target": "MrgprX1 R55L variant (human, UniProt Q96LB2 1-322)", "sequence (Q96LB2 whole entry R55L)": "as the sequence (Q96LB2 whole entry R131S) above, with R55L, S131R counted along it"}, "[1]": {"biological_target": "T1, Mas-related G protein-coupled receptor X1 (MrgprX1), wild type (human, UniProt Q96LB2 1-322)", "T1 sequence (Q96LB2 whole entry)": "as the sequence (Q96LB2 whole entry R131S) above, with S131R counted along it"}, "MrgprX1 H137R variant": {"biological_target": "MrgprX1 H137R variant (human, UniProt Q96LB2 1-322)", "sequence (Q96LB2 whole entry H137R)": "as the sequence (Q96LB2 whole entry R131S) above, with S131R, H137R counted along it"}, "MrgprX1 I36V variant": {"biological_target": "MrgprX1 I36V variant (human, UniProt Q96LB2 1-322)", "sequence (Q96LB2 whole entry I36V)": "as the sequence (Q96LB2 whole entry R131S) above, with I36V, S131R counted along it"}, "[2]": {"biological_target": "T1, Mas-related G protein-coupled receptor …", "remark": "listed apart in the source"}}, "note": "Groups on a side chain read outwards from the residue. No end group written: not given here. *: point of attachment. PEG8 = NCCOCCOCCOCCOCCOCCOCCOCCOCCC(=O)O; Palmitoyl = CCCCCCCCCCCCCCCC(=O)*"}
{"binder": "VGRPEWWMDYQKRYGGGK([PEG8-Palmitoyl])", "note": "[Lipidated BAM8-22]", "values": [{"measurement": "Curve Maximum, SRE-luciferase reporter, HEK293 cells", "setting": "MrgprX1 R131S variant", "result": "40.4 % of WT signal at 10^-6 M lipidated BAM8-22"}, {"measurement": "EC50 (nM), SRE-luciferase reporter, HEK293 cells", "setting": "MrgprX1 R131S variant", "result": 57.1, "unit": "nM"}, {"measurement": "pEC50, SRE-luciferase reporter, HEK293 cells", "setting": "MrgprX1 R131S variant", "result": 7.24}, {"measurement": "Curve Maximum, SRE-luciferase reporter, HEK293 cells", "setting": "MrgprX1 A46T variant", "result": "112 % of WT signal at 10^-6 M lipidated BAM8-22"}, {"measurement": "EC50 (nM), SRE-luciferase reporter, HEK293 cells", "setting": "MrgprX1 A46T variant", "result": 9.5, "unit": "nM"}, {"measurement": "pEC50, SRE-luciferase reporter, HEK293 cells", "setting": "MrgprX1 A46T variant", "result": 8.02}, {"measurement": "Curve Maximum, SRE-luciferase reporter, HEK293 cells", "setting": "MrgprX1 F273L variant", "result": "95.9 % of WT signal at 10^-6 M lipidated BAM8-22"}, {"measurement": "EC50 (nM), SRE-luciferase reporter, HEK293 cells", "setting": "MrgprX1 F273L variant", "result": 12.1, "unit": "nM"}, {"measurement": "pEC50, SRE-luciferase reporter, HEK293 cells", "setting": "MrgprX1 F273L variant", "result": 7.92}, {"measurement": "Curve Maximum, SRE-luciferase reporter, HEK293 cells", "setting": "MrgprX1 H133R variant", "result": "110 % of WT signal at 10^-6 M lipidated BAM8-22"}, {"measurement": "EC50 (nM), SRE-luciferase reporter, HEK293 cells", "setting": "MrgprX1 H133R variant", "result": 8.6, "unit": "nM"}, {"measurement": "pEC50, SRE-luciferase reporter, HEK293 cells", "setting": "MrgprX1 H133R variant", "result": 8.06}, {"measurement": "Curve Maximum, SRE-luciferase reporter, HEK293 cells", "setting": "MrgprX1 R55L variant", "result": "108 % of WT signal at 10^-6 M lipidated BAM8-22"}, {"measurement": "EC50 (nM), SRE-luciferase reporter, HEK293 cells", "setting": "MrgprX1 R55L variant", "result": 10.2, "unit": "nM"}, {"measurement": "pEC50, SRE-luciferase reporter, HEK293 cells", "setting": "MrgprX1 R55L variant", "result": 7.99}, {"measurement": "Curve Maximum, SRE-luciferase reporter, HEK293 cells", "setting": "[1]", "result": "101 % of WT signal at 10^-6 M lipidated BAM8-22"}, {"measurement": "EC50 (nM), SRE-luciferase reporter, HEK293 cells", "setting": "[1]", "result": 12, "unit": "nM"}, {"measurement": "pEC50, SRE-luciferase reporter, HEK293 cells", "setting": "[1]", "result": 7.92}, {"measurement": "Curve Maximum, SRE-luciferase reporter, HEK293 cells", "setting": "MrgprX1 H137R variant", "result": "109 % of WT signal at 10^-6 M lipidated BAM8-22"}, {"measurement": "EC50 (nM), SRE-luciferase reporter, HEK293 cells", "setting": "MrgprX1 H137R variant", "result": 7.9, "unit": "nM"}, {"measurement": "pEC50, SRE-luciferase reporter, HEK293 cells", "setting": "MrgprX1 H137R variant", "result": 8.1}, {"measurement": "Curve Maximum, SRE-luciferase reporter, HEK293 cells", "setting": "MrgprX1 I36V variant", "result": "109 % of WT signal at 10^-6 M lipidated BAM8-22"}, {"measurement": "EC50 (nM), SRE-luciferase reporter, HEK293 cells", "setting": "MrgprX1 I36V variant", "result": 9.3, "unit": "nM"}, {"measurement": "pEC50, SRE-luciferase reporter, HEK293 cells", "setting": "MrgprX1 I36V variant", "result": 8.03}, {"measurement": "potency relative to soluble BAM8-22, SRE-luciferase reporter, HEK293 cells", "setting": "[2]", "result": "~100 fold higher potency than soluble BAM8-22"}]}
